{"source": "patent US20240174755A1", "about": "(published 2024)", "binders": {"B1": {"name": "QPD-1D4 (VHH)", "VHH": "EVQLVESGGGLVQAGDSLRLSCAVSGRAQSRDVVGWFRQAPGKEREFLALVTRSYSTYYGASVKGRFTISRDNAKNTVHLEMNSLKPEDTGVYYCAADQGFCSGSGCYDWRTFHVWGQGTQVTVSS", "notes": "Purified, unconjugated VHH; also called VHH 1D4"}, "B2": {"name": "1E12-biotin (VHH)", "VHH": "EVQLVESGGGLVQAGGSLRLSCAPSERSFSAYLMGWFRQAQGKEREFVAAWRWPTSTTYYSDSGKGRFTITGDNAKNTVELEMNSLKPEDTAVYYCAARRGILYGPATSPTAYDFWGQGTQVTVSS", "modifications": "Biotin-maleimide on the C-terminal cysteine of the C-Direct tag", "notes": "ID NO: 31 or 32; also called VHH 1E12-biotin; biotin-conjugated 1E12; not shown: C-terminal C-Direct tag with a free cysteine and an EPEA purification tag (vector pYQVQ11)"}, "B3": {"name": "1E12-Flag-His (VHH)", "VHH": "B2 VHH", "notes": "Made in E. coli; ID NO: 31 or 32 (N-terminal residue differs); also called VHH 1E12 (flag-his-tagged); tagged VHH 1E12; not shown: C-terminal FLAG-His tag from vector pMEK222"}}, "key": {"[1]": {"biological_target": "human PDGFR β ECD (U-protein Express, Utrecht) (human) (UniProt P09619)", "experiment": "dose response ELISA on immobilized PDGFR β"}, "[2]": {"biological_target": "T1, human PDGFR β extra-cellular domain (ECD), Fc- and His-tagged (Sino Biological) (human, UniProt P09619 33-532)", "T1 construct": "extracellular domain; Bought; also called hECD; Fc/His-tagged PDGFR β ECD; not shown: Fc tag and His tag", "experiment": "SPR (Biacore 3000), Fc/His PDGFR β ECD captured on protein A; 1D4 construct not stated", "experimental": "(§1) FIG. 11: VHH (flag-his-tagged, or conjugated with HL488, NOTA or 800 CW) binding to human extracellular domain (ECD) of PDGFR β assessed with surface plasmon resonance (SPR). Fc/His-tagged PDGFR β ECD was bound to protein A chemically conjugated to CM4 sensor chip. Binding of VHHs was tested at 0.39-50 nM. Shown are representative SPR Biacore traces of tagged or conjugated 1B5 VHH (panels A); tagged or conjugated 1D4 VHH (panels B); tagged or conjugated 1H4 VHH (panels C) or tagged VHH 1E12 (panel D).\n(§2) SPR analysis was performed using the Biacore 3000 instrument (GE Healthcare). Protein A was chemically bound to a CM4 sensor chip (GE Healthcare) according to the primary amine procedure to approximately 2100 response units (RU). Fc/His-tagged PDGFR β ECD at 0.4-2.07 ng/ul was bound to protein A at flow rate of 35 ul/min. Run buffer HBS-EP (GE Healthcare; 0.01 M HEPES pH 7.4, 0.15 M NaCl, 3 mM EDTA, 0.005% v/v Surfactant P20) was used for VHHs 1D4, 1H4 and 1E12 conjugates at 50, 25, 12.5, 6.25, 3.13, 1.56, 0.78 and 0.39 nM. For 1B5 conjugates, HBS-EP+0.5 M NaSCN was as run buffer to reduce non-specific binding to a control path without PDGFR β ECD. A flow rate 70 ul/min was used for VHH injections in volumes of 150 ul. Regeneration of the sensor CM4 chip was performed by three successive injections of c. 30 s 10 mM glycine-HCl pH 2, 10 mM glycine-HCl pH 1.5, and 0.5 M NaSCN/10 mM NaOH."}, "[3]": {"biological_target": "human PDGFR β ECD (U-protein Express, Utrecht) (human) (UniProt P09619)", "experiment": "dose response ELISA, PDGFR β ECD coated at 2 µg/ml, rabbit anti-VHH detection"}, "[4]": {"biological_target": "T2, human PDGFRa (Sino Biological; Cat. Number 10556-HCCH) (human, UniProt P16234 24-524, limits assumed)", "T2 construct": "Bought; construct not described; also called PDGFRα", "experiment": "direct ELISA, PDGFRa coated, streptavidin-HRP detection", "experimental": "(§3) 96-well maxisorp (Nunc) immunosorp plates were coated with 2 ug/ml of human PDGFRa (Sino Biological; Cat. Number; 10556-HCCH) or 2 ug/ml human EGFR/HER1/ErbB1 Protein (His Tag, Sino Biological; Cat. Number; 10001-H08H) in PBS, 100 ul per well, at 4C overnight. Wells were washed thrice in PBS. Unspecific binding sites were blocked in 4% BSA/PBS for 1 h at RT, followed by washing thrice in PBS. VHH-biotin conjugates, diluted at 0.01-100 nM in 1% BSA/PBS, were incubated for 1 h at RT, followed by washing thrice in PBS. Streptavidin-horseradish peroxidase (HRP; GeneTex) was diluted 1:40,000 in 1% BSA/PBS and was incubated for 1 h at RT. PDGFRa or EGFR was detected with positive control antibodies rabbit anti-human PDGFRa/CD140a Antibody, (Cat no: 10556-R065) or rabbit anti-human EGFR/HER1/ErbB1 (Catalog no: 10001-R021, both from Sino Biological) diluted in 1% BSA/PBS at 1:5000 and were incubated for 1 h at RT, shaking. Secondary HRP-conjugated anti-rabbit-antibody was diluted at 1:5000 in 1% BSA/PBS and was incubated for 1 h at RT, shaking. Wells were washed 6 times in PBS. o-Phenylenediamine dihydrochloride (OPD; Sigma-Aldrich) was used as HRP substrate at 0.4 mg/ml in 0.05 M phosphate-citrate buffer pH 5.0 with 0.03% sodium perborate (Sigma-Aldrich), prepared according to the manufacturer's recommendations, and was used in volume of 100 ul per well. Reaction was allowed to proceed for 30 min at RT in dark, and was stopped by adding 50 ul of 1.5 M HCl. Optical density was measured at 492 nm on a Synergy H1 microplate reader (BioTek).\nVHH-biotin binding to human PDGFRa was assessed using an ELISA, where wells were coated with PDGFRa, and VHH-biotin binding was detected using streptavidin-HRP with OPD as a substrate."}, "[5]": {"biological_target": "T3, human EGFR/HER1/ErbB1 Protein (His Tag, Sino Biological; Cat. Number 10001-H08H) (human, UniProt P00533 25-645)", "T3 construct": "Bought; construct not described; not shown: His tag", "experiment": "direct ELISA, EGFR coated, streptavidin-HRP detection", "experimental": "as §3"}, "[6]": {"biological_target": "T4, mouse PDGFR β ECD (R&D Systems) (mouse, UniProt P05622 32-531)", "T4 construct": "extracellular domain; Bought; also called mECD; mouse ECD", "T4 sequence (looked up)": "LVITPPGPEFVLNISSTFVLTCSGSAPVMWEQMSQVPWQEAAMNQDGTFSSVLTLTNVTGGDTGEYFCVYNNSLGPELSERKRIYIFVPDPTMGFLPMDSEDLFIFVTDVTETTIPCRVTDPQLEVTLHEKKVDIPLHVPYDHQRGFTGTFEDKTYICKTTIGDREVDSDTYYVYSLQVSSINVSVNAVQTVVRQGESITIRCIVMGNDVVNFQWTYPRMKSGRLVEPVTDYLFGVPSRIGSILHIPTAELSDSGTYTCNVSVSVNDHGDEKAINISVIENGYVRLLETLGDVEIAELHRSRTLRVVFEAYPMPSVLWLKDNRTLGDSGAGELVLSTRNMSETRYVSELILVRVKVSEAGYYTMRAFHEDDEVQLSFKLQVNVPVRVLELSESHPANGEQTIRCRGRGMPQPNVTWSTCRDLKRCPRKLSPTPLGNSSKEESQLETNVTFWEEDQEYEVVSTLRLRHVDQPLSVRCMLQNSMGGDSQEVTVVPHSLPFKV", "experiment": "biotin-streptavidin ELISA, mouse PDGFR β ECD coated at 4 ug/ml", "experimental": "In this example, the binding affinity of biotin-conjugated VHHs 1B5 and 1E12 to either human or mouse PDGFR β extra-cellular domain (ECD) was assessed using biotin-streptavidin ELISA. Human or mouse PDGFR β ECD was coated on immunoassay wells, where 1B5-biotin or 1E12-biotin were captured. Binding was detected using streptavidin-HRP and ODP as a substrate.\nELISA Method 96-well maxisorp (Nunc) immunosorp plates were coated with 1 ug/ml or 2 ug/ml of PDGFR β extracellular domain (ECD; Fc- and His-tagged, Sino Biological) or mouse PDGFR β ECD (R&D Systems) 4 ug/ml in PBS, 100 ul per well, at 4C overnight. Wells were washed thrice in PBS. Unspecific binding sites were blocked in 4% BSA/PBS for 1h at RT, followed by washing thrice in PBS. VHHs 1B5-biotin or 1E12-biotin, diluted at 0.01-100 nM in 1% BSA/PBS, was allowed to bind on ECD for 1 h at RT, followed by washing thrice in PBS. Streptavidin-horseradish peroxidase (HRP; GeneTex) was diluted 1:10,000 in 1% BSA/PBS and was incubated for 1 h at RT. […] Optical density was measured at 492 nm on a Synergy H1 microplate reader (BioTek)."}, "[7]": {"biological_target": "T1, human PDGFR β extra-cellular domain …", "experiment": "SPR (Biacore 3000), Fc/His PDGFR β ECD captured on protein A; only 1E12-Flag-His was run in SPR", "experimental": "as §1, §2"}}}
{"binder": "B1", "values": [{"measurement": "apparent binding affinity", "setting": "[1]", "value": 0.5, "unit": "nM"}, {"measurement": "Kd", "setting": "[2]", "value": "~0.02", "unit": "nM"}, {"measurement": "apparent affinity", "setting": "[3]", "value": "< 1", "unit": "nM"}]}
{"binder": "B2", "values": [{"measurement": "binding result", "setting": "[4]", "value": "no binding (tested: 0.01-100 nM)"}, {"measurement": "binding result", "setting": "[5]", "value": "no binding (tested: 0.01-100 nM)"}, {"measurement": "EC50", "setting": "[6]", "value": 1.1, "unit": "nM"}]}
{"binder": "B3", "values": [{"measurement": "Kd", "setting": "[7]", "value": "~100", "unit": "nM"}]}
